We go through 30 sequences from the nanobody polyreactivity screen of Harvey et al. (2022).

This data set is described as follows: yeast display, Sf9 membrane polyspecificity reagent, FACS + sequencing; frameworks hold sequencing errors. A digest of the protocol: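 Genes from sorted yeast were amplified by colony PCR, read by MiSeq 2 × 250 sequencing and filtered on CDR length. These cells carried a synthetic nanobody library in Saccharomyces cerevisiae BJ5465 and were sorted by FACS into low and high (top ~1%) gates on anti-HA and streptavidin fluorescence. Polyreactivity is labelled according to the gate of origin.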
“QVHLVESGGGLVQAGGSLRLSCAASGRIFYAYAMGWYRPAPVKERELVAAITWSGGSTYYADSVKGRFTISRDNAKNTVYLQMNSLKPEDTAVYYCAADLRVKYVHTYSYVWYRYDYWGQGTQVTVSS”: the “polyreactivity (PSR sort gate)” value is on record as “high polyreactivity”.

Regarding “QDQIVESCGGLVQAGGSLRLSCASSGNIIYPKAMGWYRQAPGKERDLVAAISTSRGSTYYADSVKGRFTISRDNAKNTVYLQMNSLKPEDTAVYYCNRRGPYGYKAWAIGTIGDLDYWGQGTQVTVSS”, the “polyreactivity (PSR sort gate)” value is “low polyreactivity”.

Turning to “QVQLVESGGGLVQAGGSLRLSCAASGRTFGKYAMGWYRQAPGKERELVAGISSRGGSTYYADSVKGRFTISRDNAKNTVYLQMNSLKPEDTAVYYCAKRPLTSNASQGDYWGQGTQVTVSS”, the “polyreactivity (PSR sort gate)” value is recorded as “high polyreactivity”.

With “QVQLVESGGGLVQAGGSLRLSCAASGSIFKPYAMGWYRQAPGKERELVAAISRSGSTYYADSVKGRFTISRDNAKNTVYLQMNSLKPEDTAVYYCAKDVRPNYYAAFNYWGQGTQVTVSS”, the “polyreactivity (PSR sort gate)” value is recorded as “low polyreactivity”.

Turning to “QVQIVESGRGLVQAGGSLRLSCAASGSIFHPKAMGWYRQAPGKERELVAAITSGGGSTYYADSVKVRYTISRDNAKNTVYLQMNSLKPEDTAVYYCNKVFVLPYKFVAWFDYWGQGTQVTVSS”, the “polyreactivity (PSR sort gate)” value is recorded as “low polyreactivity”.

For the sequence “QVQLVESGGGLVQAGGILRLSCAAYGRTFYLYTMGWYRQEPGKERELVAAISRGGRTYADSVKGRFTISRDNAKNTVYLQMNSLKPEDTAVYYCADRGYFYYSRYDSWGQGTQVTVSS”, the “polyreactivity (PSR sort gate)” value is “low polyreactivity”.

In the case of “QVQLVESGGGLVQAGGSLRLSCAASGFTFRRYDMGWYRQAPGKERELVAAITASGGNTYYADSVKGRFTISRDNAKNTVYLQMNSLKPEDTAVYYCAARQYRYKYDYWGQGTQVTVSS”, the “polyreactivity (PSR sort gate)” value is recorded as “high polyreactivity”.

For the sequence “QVQLVESGGGLVQAGGSLRLSCAASGRIFGKYAMGWYRQAPGKERELVAAISSSGGSTYYADSVKGRFTISRDNAKNTVYLQMNSLKPEDTAVYYCAADAAVSRVYPYDYWGQGTQVTVSS”, the “polyreactivity (PSR sort gate)” value is “high polyreactivity”.

Regarding “QVQLEESGGGLVQAGGSLRLSCAASGFIFAFNAMGWYRQAPGKEREMVATISWNDGGTYYADSVKGRFTISRDNAKNTVYLEMNSLKPEDTAVYYCAADWYLYLDDKYDYWGQGTQVTVSS”, the “polyreactivity (PSR sort gate)” value is listed as “low polyreactivity”.

As to “QVQLVESGGGLVQAGGSLRLSCAASGYTFRYYAMGWYRQAPGKDRELVAVISSGGSTKYADSVKGRFTNSRDNAKNTVYLQMNSLKPEDTAVYYCAARYRSLYNYWGQGTQVTVSS”, the “polyreactivity (PSR sort gate)” value is recorded as “high polyreactivity”.

With “QVQLVESGGGLVQAGGSLRLSCAASGRTSYGYAMGWYRQAPGKERELVAGISRSGSSTYYADSVKGRFTISRDNAKNTVYLQMNSMKPEDNAVYYCNAARPFNRVPRQTWKMGYWGQGTQVTVSS”, the “polyreactivity (PSR sort gate)” value is “high polyreactivity”.

On to “QVQHVESGGGLVQAGGSLPLSCAASGITFSKYAMGWYRQAPGKERELVAAITRSGGSTYYADSVKGRFTISRDNAKNTVYLQMNSLKPEDTAVYYCAAKRRERYGQTYGYWGQGTQVTVSS”, for which the “polyreactivity (PSR sort gate)” value is “high polyreactivity”.

In the case of “QVQLVESGGGLVQAGGSLRLSCAASGSIFRYYAMGWYRQAPGKERELVAAITASSGNTYYADSVKGRFTISRDNAKNTVYLQMNRLKPEDTSVYYCSKQPGISYRHYDYWGLGTQVTVSS”, the “polyreactivity (PSR sort gate)” value is “high polyreactivity”.

Regarding “QDQLVESGGGLVQAGGSLRLICAASGNTLGYYAMVCYRQATGKERELVATISDDGTTYYADSVKGLFTISRDNAKNSVYLQMNSLKPEDTAVYYCATDGSAQYSMDYWGQGTQVTVSS”, the “polyreactivity (PSR sort gate)” value is “low polyreactivity”.

With “QVQLVESGGGLVQAGGSLRLSCSASGITFWYNAMEWYRQAPGKERELVAAISRSAGSTYYADSVKGRFTISRDNAKNTVYLQMNSLKPEDTAVYYCAAKTPGRYYYWGQGTQVTVSS”, the “polyreactivity (PSR sort gate)” value was “high polyreactivity”.

In the case of “QVQLVESGGGLVQAGGSLRLSCAASGFIFWYYDMGWYRPAPGKEREFVAAITRSSGSTYYADSVKGRFTISRDNAKNTVYLQMNSLKPEDTAVYYCNADSVAYGDEYDYWGQGTQVTVSS”, the “polyreactivity (PSR sort gate)” value is “low polyreactivity”.

On to “QVQLVVSGGGLVQAGGSLRLSCAASGSLFTPYAMGWYRQAPGKERELVATISWSGGRTYYADSVKGRFTISRDNAKNPVYLQMNSLKPEDTAVYYCAARGYSSEYDYWGQGTQVTVSS”, for which the “polyreactivity (PSR sort gate)” value is reported as “high polyreactivity”.

Turning to “QVQLVESGGGLVQAGGSLRLSCAASGRTFGLNAMGWYRQAPGKERELVAAIDWRGVNTYYADSVKGRFTISRDNAKNTVYLQMNSLKPEDTAVYYCNARAYGRYYWGQGTQVTVSS”, the “polyreactivity (PSR sort gate)” value is on record as “high polyreactivity”.

Turning to “QVQLVESGGGLDQARGSLRLSCAASGSILRYYTMGWYRQAHGKERELVAAISYRGSSTYYADSVKGRFTISRDNAKNTVYLQMNSLKPEDTAVYYCARGGYYGYDYWGQGTQVTLSS”, the “polyreactivity (PSR sort gate)” value was “high polyreactivity”.

“QVQLVESGGRLVQAGGSLRLSCAASGITFYYYAMGWYRQAPGKERELVAAISVSGGSTYYADSVKGRFTISRDNAKNTVYLQMNSLKPEDTAVYYCAAADLLSYTYPEYDYWGQGTQVTVSS”: the “polyreactivity (PSR sort gate)” value is given as “low polyreactivity”.

As for “QVQLVESGGGLVQAGGSLSLSCAASGFIFGWYAMGWFRQAPGKERELVAAIYASGTRTYYADSVKGRFTISRDNAKNTVYLQMNSLKPEDTAVYYCNVYTKFVYAYDYWGQGTQVTVSS”, the “polyreactivity (PSR sort gate)” value is “high polyreactivity”.

On to “QVQLVESGGGLVQAGGSLRLSCAASGSIFVGYAMGWYRQAPGKERELVAAISKRGGGTYYADSVKGRFTISRDNAKNTVYLQMNSLKPEDTAVYYCNAVTVHLDVASGYYYWGQGTQVTVSS”, for which the “polyreactivity (PSR sort gate)” value is on record as “high polyreactivity”.

With “QVQLVESGGGLVQAGGSLRLSCAASGFIFYYNTMVWYRQAPGKERELVASITWSGDTTYYADSVKGRFTISRDNAKNTVYLQMNSLKPEDTAVYYCAAVHYYPYRRYDYWGQGTQVTVSS”, the “polyreactivity (PSR sort gate)” value is “low polyreactivity”.

Turning to “QFQLVESGGGLVQAGGSLRLICAASGFIFWYNAMGWYRQSPGKEREFVAAISSGGSTTYADSVKGRFTISRDNALITVYLQMNSLKPEDTAVYYCAAGSYDYDYWGQGTQVTVSS”, the “polyreactivity (PSR sort gate)” value is “low polyreactivity”.

For the sequence “QVQLVESGGGLVQAGGSLRLSCAASGRIFRWYAMGWYRQAPGKEREIVAAITSSGGSTYYADSVKGRFTISRDNAKNTVYLQMNSLKPEDTAFYYCAALLYLGGSYSRGYYWGQGTQVTVSS”, the “polyreactivity (PSR sort gate)” value was “high polyreactivity”.

With “QVQLVESGGGLVQAGGSLRLSCAASGFTFGPYAMGWYRQAPGKERELVAGITWSGASTYYADSVKGRFTISRDNAKNSVYLQMNSLKPEDTAVYYCARYYRLGSRYDYWGQGTQVTVSS”, the “polyreactivity (PSR sort gate)” value is on record as “low polyreactivity”.

In the case of “QVQLVESGGGLVQAGGSLRLSCAASGRIFYVYAMGWYRQAPGKERELVAGIRSGGSTNYADSVKGRFTISRDNAKNTVYLLMNSLKPEDTAVYYCAVQSYGALSPQLVYRRYDYWGQGTQVTVSS”, the “polyreactivity (PSR sort gate)” value is recorded as “high polyreactivity”.

In the case of “QVQLVESRGGLVQAGGSLRLSCAASGRILHFNAMGWYRQAPGKEREFVASISWSGGFTYYADSVKGRFTISRDNAKNTVYLQMNSLTPEDTAVYYCARGYGYGDHAMGYWGQGTQVTVSS”, the “polyreactivity (PSR sort gate)” value is on record as “high polyreactivity”.

As for “QVLLVESGGGLVQAGGILRLSCAASGRILPFNAMGWYRQAPGKAREFVAANSRVSGRTYYADSVKGRFTISRDNAKNTVYLQMNSLKPEDTAVYYCATDTYSYGYEYWGQGTHVTVSS”, the “polyreactivity (PSR sort gate)” value is given as “high polyreactivity”.

For “QVQLVESGGGLVQAGGSLRLSCAASGSIISGYAMGLDRQARGKERDLVAAISSGGRTKYADSVKGRFTISRDNAKNTVYLQMNSLKPEDTAVYYCNVSYLVYRWIFGWSLDYWGQGTQVTVSS”, the “polyreactivity (PSR sort gate)” value is listed as “low polyreactivity”.
